Laboratory results published in the nanobody polyreactivity screen of Harvey et al. (2022).

Experiment: yeast display, Sf9 membrane polyspecificity reagent, FACS + sequencing; frameworks hold sequencing errors
How it was run: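 Nanobodies from a synthetic yeast display library (Saccharomyces cerevisiae BJ5465), induced 36–48 hours with galactose, were stained 1 hour at 4 °C with 10% biotinylated, detergent-solubilized Sf9 membrane reagent, enriched on streptavidin microbeads, then FACS-sorted. Anti-HA (expression) and streptavidin (reagent binding) fluorescence set low and high (top ~1%) gates. Polyreactivity labels come from the gate of origin. Genes were colony-PCR amplified, MiSeq 2 × 250 sequenced and filtered by CDR length.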

Row | Sequence | polyreactivity (PSR sort gate)
1 | QVQLVESGGGLVQAGGSLRLSSDASGRIFRYYSMGWYRQAPGKERELVAAITRGGYTNYADSVKGRFTISRDNAKITVYFQMNSLKQEDTAVYYCATRQSWYPRWMDYWGQGTQVTVSS | high polyreactivity
2 | QVQLVESGGGLVQAGGRLRLSCAASGSIFYYNVMGWYRQAHGKQRELVAAITWSGGTTYYADSVKGRFTISRDNAKNTVYLQMNSLKPEDTAVYYCIAASPYSWGYRRGYLGQGTQVTVSS | high polyreactivity
3 | QVQLVESGGGLVQAGGSLRLSCAASGSILGLYAMGWYRQAPGKERELVAAITYRGGRTDYADSVKGRFTISRDNAKNTVYLQMNSLKPEDTAVYYCAAGYLPRPRYSTSYLYYYWGQGTQVTVSS | high polyreactivity
4 | QVQLVESGGGLVQAGGSLRLSCAASGSIFSVNAMGWYRQAPGKVRELVAAISWRGGSTYYADSVKGRFTISRYNAKTTVYLQMNSLKPEDTAGYYCNAVISVKRSTRYGYWGQGTQVTVSS | low polyreactivity
5 | QVQLVESGGGLVQAGGSLRLSCAASGSIFLVYAMGWYRQAPGKERELVAVISRGGITNYADSVKGRFTISGDNAKNTVYLQMNSLKPEDTAVYYCAAEPRPSWSRYTYGYWGQGTQVTVSS | low polyreactivity
6 | QVQLVESGGGLVQAGGSLRLSCAASGRTFLYYAMGWYRQAPGKERELVAGITSGGSTNYADSVKGRFTISRDNAKNTVYLQMNSLKPEDTAVYYCAVDQGYSRTADVNYDYWGQGTQVTVSS | low polyreactivity
7 | QVQLVESGGGLVQAGGSLRLSCAASGSTLSLYAMGWYRQAPGKERELVAAITSSGGTYYADSVKGRFTISRDNAKNTVYLQMNGLKPEDTAVYYCAAQSYSRMDYWGQGTQVTVSS | high polyreactivity
8 | QVQLVESGGGLVQAGGSLRLSCAASGSTFREYAMGWYRQAPGKERELVAAISSGDSTNYADSVKGRFTISRDNAKNTVYLQMNSLKPEDTAVYYCAADAPGAAAVQNDYWGQGTQVTVSS | low polyreactivity
9 | QVQLVESGGGLDQAGGSLRLRCAASGIIFDYNGMGWYRQAPGKERELVAVISFSGSGTYYADSVKGRFTISRDNAKNTVYLHMNSLKPEDTAVYYCAADTGPYFEYEYWGQGTQVTVSS | low polyreactivity
10 | QVQLVESGGGLVQAGGSLRLSCADSGSIFDVNVMGWYRQAPAKERELVASINISGASTYYADSVKGRLTISRDNAKNTVSLQMNSLKPEDTAVYYCAGTYGVPSFRYGYWGQGTQVTVSS | low polyreactivity
11 | QVQLVESGGGLVQAGGSLRLSCAASGLTFYLYAMGWYRQAPGKERELVAAISRSGGSTYYADSVKGRFTISRDNAKNTVYLQMNSLKPEDTAVYYCAAVTYYPEIRKYYYWGQGTQVTVSS | high polyreactivity
12 | QVQLVESGGGLVQAGGSLRLSCAASGSIFRYYTMGWYRQAPGKERELVASISRGGNTYYADSVKGRFTISRDNAKNTVYLQMNSLKPEDTAVYYCNVRLSYSYISQSDWNFDYWGQGTQVTVSS | low polyreactivity
13 | QVQLVESGGGLDQAGGSLRLSCAASGRIFRYNAMVWYRQAPGKERELVASISGTSRTKYADSVKGRFTISRDNAKNTVYLQMNSLKPEDTAVYYCAARRYGWGRAQSSASYDHWGQGTQVTVSS | high polyreactivity
14 | QVQLVESGGGLVQAGGSLRLSCAASGFTFRVYAMGWYRQPPGKERELVAVISGTGGRTYYADSVKGRFTISRDNAKNTVYLQMNSLKPEDTAVYYCAAVGLTPKAIWTSDYWGQGTQVTVSS | high polyreactivity
15 | QVQLVESGGGLVQEGGSHSLSCAASGRTFKYKAMGWSRPAPGKERELVASISGSGGRTYYADSVKGRFTISRDIAKNSVFLQMYRLNPEDTAVYFCNATRVKWLDWGQGTQVTVSS | high polyreactivity
16 | QVQLVESGGGLVLAGGSLRLSCAASGSTFEYNAMGWYRPAPGKERELVASSTNYADSVKGRFTISRDNAKNTVSLQRNSLKPEDTAVNYSAREQGVNRNHDYWGQGTQVTVSS | low polyreactivity

Row | Sequence | polyreactivity (PSR sort gate)
17 | QVQLVESGGGLVQAGGSLRLSCAASGSTFTINAMGWYRQAPGKERELVAAISWSDVDTYYADSVKGRFTISGDTAKNTVYLQMNSLKPEDTAVYYCSAQFSYRYYTDEVGYLGQGTQVTVSS | high polyreactivity
18 | QVQLVESGGCLVQAGGSLRLSCAASGSILRYYAMGWYRQAPGKERELVAAISRGGSTYYADSVKGRFTISRDNAKNTVYLQMNSLKPEDTAVYYCARLPLRYYFGYDYWGQGTQVTVSS | high polyreactivity
19 | QVQLVESGGGLVQAGGSLRLSCAASGSIFDWYDMGWYRQAPGKEGELVAAISSGDSTYYADSVKGRFTISRDNAKNTVYLQMNSLKPEDTAVYYCAAVTKLSGIRYNYWGQGTQVTVSS | low polyreactivity
20 | QVQLVESGGGLVQAGGSLRLSCAASGITFDKNTMGWYRQEPGKVRELVAAISARGGSTYYADSVKGRFTISRDNSKNTVYLQMNSLKPEDTAVYYCAARSGYGPYRMDYWGQGTQVTVSS | high polyreactivity
21 | QVQLVESGGGLVQAGGSLRLSCAASGFTFDANAIGWYRQAPGKERELVAAISSSGGSTYYADSVKGRFTISRDNAKNTVYLQMNSLKPEDTAVYYCAADLAPGRHDYWGQGTQVTVSS | high polyreactivity
22 | QVQLVESGGGLVQAGGSLRLSCAASGSTFVDYAMGWYRQAPGKEREFVAAISFSGDSTYYADSVKGRFTISRDNAKNSVYLQLNSLKPEDTAVYYCAASRPYYNRQYYRSWRDDYWGQGTQVTVSS | low polyreactivity
23 | QVQVVESGGGLVQAGGSLRLSCAASGSTFGHNAMGWYRQAPGKERELVAAIDSGDGTTYADSVKGRFTISRDNAKNTVYLQMNSLKPEDTAVYYCNADGLGGADPEYLWYPVPDYDYWGQGTQVTVSS | low polyreactivity
24 | QVQLVESGGGLVQAGGSLRLSCAASGFIFLYYAMGWYRQAPGKERELVADISRGADTKYADSVKGRFTISRDNAKNTVYLQMNSLKPEDTAVYYCATDITTFWVPYPGVELGYWGQGTQVTVSS | low polyreactivity
25 | QVQLVESGGGLVQAGGSLRLSCAAPGSTFYLYAMGWYRQAPGKERELVAAISSGGRTNYADSVKGRFTISRDNAKNTVYLQMNSLKPEDTAVYYCAARIQCPTWSLYYYWGQGTQVTVSS | high polyreactivity
26 | QVQLVESGGGLVQAGGSLRVSSAASGSIFDYYEMGWYRQAPGKEREMVAAINISGGDTYYADSVKGRFTISRDNAKNTVYLQMNSLNPEDTAVYYCAADWVTWWFSRVGWDYGYWGQGTQVTVSS | low polyreactivity
27 | QVQLVESAAGLVQAGGSLRLRCAASGRIFSDYAMGWYRQAPGKERELVATITSGDSTNYADSVKGRFTISGDNAKNTDYLQMNSLKPEDTAVYYCNADRFADYDYWGQGTQLTVSS | low polyreactivity
28 | QVQLVESGGGLVQAGGSLRISCAASGSIFRINAMGWYRQAHGKEMELVAAITASGDRTYYADSVKGRFTISRDNAKNTVYLQMNSLKPEDTAVFYCAVDSYYPASSLVAFPYAPRYDYWGQGTQVTVSS | low polyreactivity
29 | QVQLVESGGGLVQAVGSHRLSCAASGSIFFWYTMGWYRQPPGKERELVATITGSGSSTTYADSVKGRFTISRDNAKNTVYLQMNSLKPVDTAVYYCAAADIIDHSFPYDYWGQGTQVTVSS | low polyreactivity
30 | QVQLVESGGGLVQAGGSLRLSCAASGSTFDGNAMGWYRQAPGKERELDAAISWNSGSTYYADSVKGRFTISRDNAKNTVYLQMNSLKPEDTAVYYCAATYGTGRRSKYGYWGQGTQVTVSS | high polyreactivity
31 | QVQLVESGGGLVQAGGSLRLSCAASGRIFVGYAMGWYRQAPGKERELVAAINRSGSSTYYADSVKGRFTISRDNAKNTVYLQMNSLKPEDTAVYYCNARSGNRYGPRYDYWGQGTQVTVSS | high polyreactivity
